Measurements: patent CN114349851A (SHANGHAI NAI BIOTECHNOLOGY CO LTD, dated 2022)

What was measured:
[1] = biological target: T1, RBD-Fc (RBD与Fc的融合蛋白), 野生型RBD (SARS-CoV-2, UniProt P0DTC2 319-541); experiment: competitive ELISA, nanobody titrated against RBD binding to coated ACE2
[2] = biological target: T1, RBD-Fc (RBD与Fc的融合蛋白), 野生型RBD; experiment: BLI (Octet RED96), His-tagged nanobody on Ni-NTA sensor, RBD-Fc as analyte
[3] = biological target: T1, RBD-Fc (RBD与Fc的融合蛋白), 野生型RBD; experiment: BLI, compared with C5

B1: 纳米抗体C5D2 (VHH)
VHH: DVQLVESGGGSVQAGGSLRLSCAASGEYSQLRFLGWFRQAPGKEREGVAAGLGANEDGYYADSVKGRFTVSLDNAENTVYLQMNSLKPEDTALYYCAALVIFSHDGPEFLAQNYWGQGTQVTVSS
For B1, the IC50 [1] was 28 nM and the Kd [2] was less than 0.001 nM.

B2: 纳米抗体C5G2 (VHH)
VHH: DVQLVESGGGSVQAGGSLRLSCAASGKFSHLVFLGWFRQAPGKEREGVAAGLGAYESGYYADSVKGRFTVSLDNAENTVYLQMNSLKPEDTALYYCAALVVLSRDNTEFIAHNYWGQGTQVTVSS
For B2, the “fold increase in affinity over C5” value [3] was 11 fold, the IC50 [1] was 88 nM and the Kd [2] was 1.62 nM.
